According to US10000771B2, “Nuclear targeting sequences” (Yeda Research and Development Co. Ltd., priority 2007, dated 2018):

Experiments:
COS7 cells = assay: Subcellular fractionation of GFP-ERK2 constructs; assay type: cell-based; settings: 48 hr after transfection, serum-starved
Protocol: FIG. 6 is an autoradiograph illustrating the subcellular fractionation of WT-GFP-ERK2 (WT), APA-GFP-ERK2 (APA), or EPE-GFP-ERK2 (EPE). COS7 cells were grown in 10 cm plates and transfected with the above ERK2 constructs. Twenty-four hr after transfection the cells were serum-starved for 16 hr and subjected to cellular fractionation as described under materials and Methods. Western blot analysis of aliquots of the fractions were stained with anti GFP Ab to detect the ERK2 and its mutant, and with anti tubulin and anti c-Jun Abs as markers for the cytoplasmic and nuclear fractions respectively.
Cellular Fractionation: Transfected COS7 cells were starved (0.1% FBS) for 16 h, after which they were washed with ice-cold PBS, suspended in ice-cold buffer H, and centrifuged (12,000×g, 5 min). Then, the nuclear and cytosolic fractions were isolated as described [H. Rubinfeld, T. Hanoch, R. Seger, J. Biol. Chem. 274, 30349 (1999)]. Briefly, the pellets were suspended in 0.1% NP-40 followed by centrifugation (12,000×g, 5 min). The supernatant, containing the cytosolic fraction, was boiled in sample buffer. The pellet was suspended in extraction buffer (420 mM Nacl, 50 mM β-glycerophosphate, 0.5 mM Na3VO4, 1.5 mM MgCl2, 0.2 mM EDTA, 1 mM DTT, 25% glycerol), incubate on ice for 10 min, sonicated (50 W, 2×7 sec), and centrifuged (12,000×g, 5 min). […]

CHO cells = assay: Fluorescence microscopy of ERK2 constructs (subcellular localization); assay type: cell-based; settings: overexpressed in CHO (and COS7) cells, serum-starved, fluorescent microscope
Protocol: FIGS. 1A-1R are photomicrographs illustrating the role of SPS in the non-regulated accumulation of ERK2 in the nucleus. CHO (FIGS. 1A-F and 1M-R) or COS7 cells (FIGS. 1G-L) were grown on cover slips and transfected with WT-ERK2, or the mutants 244-6A and Δ244-6. Twenty-four hr following transfection, the cells were serum-starved (16 hr), fixed, stained with DAPI and visualized using a fluorescent microscope.
FIGS. 2A-2X are photomicrographs illustrating the role of SPS in the stimulated nuclear translocation of ERK2. CHO cells were grown on cover slips and co-transfected with HA-MEK1 together with either WT-ERK2, 244-6A, or Δ244-6. Twenty-four hr after transfection, the cells were serum starved for 16 hours, treated with TPA (250 nM, 15 min), except in WT-10 where the cells were treated with 10 nM TPA for 15 min. After treatments the cells were fixed and stained with either anti-HA Ab or DAPI.
FIGS. 5A-5F are photomicrographs illustrating that mutating the Ser residues in the SPS to Glu induces the nuclear accumulation of ERK2. CHO cells were grown on cover slips and transfected with WT-GFP-ERK2 (WT), APA-GFP-ERK2 (APA), or EPE-GFP-ERK2 (EPE). Twenty-four hr after transfection, the cells were serum-starved, fixed, stained with DAPI and visualized by a fluorescent microscope.
FIGS. 7A-7H are photomicrographs illustrating that EPE-ERKs translocates to the nucleus faster than WT-ERK. CHO cells were transfected with WT-GFP-ERK2 (WT) and EPE-GFP-ERK2 (EPE). Eight (FIGS. 7A-D) or twelve (FIGS. 7E-H) hours after transfection the cells were fixed, stained with DAPI and visualized by a fluorescent microscope.
Immunofluorescence Microscopy. Cells were fixed (30 min in 3% paraformaldehyde in PBS or 10 min with ice-cold methanol), followed by 5-min permeabilization with 0.2% Triton X-100 in PBS (23° C.). The fixed cells were sequentially incubated with the appropriate Abs (45 min) followed by rhodamine-conjugated secondary Abs (45 min) and DAPI. Slides were visualized using a fluorescence microscope (Nikon, Japan) at 400× magnifications. […]

Nup153c = assay: Interaction with recombinant His-Nup153c; assay type: binding; settings: immunoprecipitated ERK2 incubated with 0.5 μg recombinant His-Nup153c
Protocol: FIGS. 19A-19C are autoradiographs illustrating that phospho-SPS interacts with importin-7 and releases Nup153c binding without involvment of importin-β. […]. Interaction of ERK2 with Importin-7 is enhanced by EGF stimulation and EPE mutation. HeLa cells overexpressing WT-ERK (WT), ERK-APA (APA), ERK-EPE (EPE) or GFP were serum starved and treated with EGF (50 ng/ml, 10 min). The extracts of the treated cells were then subjected to coimmunoprecipitation using A/G beads pre-conjugated with anti GFP Ab and mild washes. The coimmunoprecipitated importin-7 (first panel) and importin-β (third panel), as well as their loading amounts (panels 2 and 4 respectively) were determined by WB using anti importin-7 (αImp7) and importin-β (αImpβ) Abs. The equal amount of immunoprecipitated ERKs was determined with anti GFP (αGFP; IP) Ab. FIG. 19B. Interaction of 2GFP-SPS and its mutants with importin-7. HeLa cells overexpressing 2GFP, 2GFP-SPS, 2GFP-APA and 2GFP-EPE constructs were subjected to coimmunoprecipitation as described in FIG. 19A (without EGF stimulation). FIG. 19C. Interaction of NUP153 with WTERK2 and its APA and EPE mutants. NUP153c is elevated in APA-ERK2, but reduced in EPE-ERK2. Immunoprecipitated and stringently washed WT-ERK2 (WT), APA-ERK2 (APA) or ERK2 from […] cells pre-treated with or without TPA (250 nM, 15 min) were incubated with 0.5 μg recombinant His-Nup153c. […]

B1: APA-ERK2: GFP-ERK2 with the two Ser residues of the SPS sequence replaced by Ala (protein)
chain: MAAAAAAGPEMVRGQVFDVGPRYTNLSYIGEGAYGMVCSAYDNLNKVRVAIKKISPFEHQTYCQRTLREIKILLRFRHENIIGINDIIRAPTIEQMKDVYIVQDLMETDLYKLLKTQHLSNDHICYFLYQILRGLKYIHSANVLHRDLKPSNLLLNTTCDLKICDFGLARVADPDHDHTGFLTEYVATRWYRAPEIMLNSKGYTKSIDIWSVGCILAEMLSNRPIFPGKHYLDQLNHILGILGAPAQEDLNCIINLKARNYLLSLPHKNKVPWNRLFPNADSKALDLLDKMLTFNPHKRIEVEQALAHPYLEQYYDPSDEPIAEAPFKFDMELDDLPKEKLKELIFEETARFQPGYRS
modifications: left off: large carriers
COS7 cells
  localized in the nucleus: ~5%
CHO cells
  subcellular localization in quiescent cells: cytoplasmic distribution
Nup153c
  interaction with Nup153: increased
